{"source": "paper PMC9898208", "experiment_in_all_cases": "single-channel current recording", "key": {"[1]": {"target": "OmpG^L3-FLAG/L6-SA1.1 (E. coli) (UniProt P76045)", "sequence (P76045 22-301)": "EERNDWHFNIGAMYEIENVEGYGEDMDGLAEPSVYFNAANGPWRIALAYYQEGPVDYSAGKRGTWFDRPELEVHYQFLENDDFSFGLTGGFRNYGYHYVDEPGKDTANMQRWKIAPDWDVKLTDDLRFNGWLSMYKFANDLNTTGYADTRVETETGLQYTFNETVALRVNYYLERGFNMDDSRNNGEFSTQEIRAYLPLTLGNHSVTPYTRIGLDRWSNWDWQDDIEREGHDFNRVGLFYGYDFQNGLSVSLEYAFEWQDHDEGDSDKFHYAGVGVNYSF"}, "[2]": {"target": "OmpG^L3/L6-SA1.1 (E. coli) (UniProt P76045)", "sequence (P76045 22-301)": "as above"}, "[3]": {"target": "OmpG^L6-SA1.1 (E. coli) (UniProt P76045)", "sequence (P76045 22-301)": "as above"}}, "note": "pKd: −log10 of the molar value.", "data": [{"substance": "streptavidin (from UniProt P22629 25-183) (natural protein)", "values": [{"measurement": "pKd", "setting": "[1]", "result": 5.12}, {"measurement": "koff", "setting": "[1]", "result": 0.55, "unit": "s⁻¹"}, {"measurement": "kon", "setting": "[1]", "result": 72200, "unit": "M⁻¹ s⁻¹"}, {"measurement": "pKd", "setting": "[2]", "result": 7.52}, {"measurement": "k'Off of the sub-events within a discrete binding event", "setting": "[2]", "result": 0.7, "unit": "s⁻¹"}, {"measurement": "k'On 1 of the sub-events (rebinding)", "setting": "[2]", "result": "3.9e+10", "unit": "M⁻¹ s⁻¹"}, {"measurement": "k'On 2 of the sub-events (rebinding)", "setting": "[2]", "result": "4.4e+09", "unit": "M⁻¹ s⁻¹"}, {"measurement": "koff", "setting": "[2]", "result": 0.01, "unit": "s⁻¹"}, {"measurement": "kon", "setting": "[2]", "result": 326000, "unit": "M⁻¹ s⁻¹"}, {"measurement": "tau'On 1 of the sub-events (rebinding)", "setting": "[2]", "result": 2.56, "unit": "ms"}, {"measurement": "tau'On 2 of the sub-events (rebinding)", "setting": "[2]", "result": 22.9, "unit": "ms"}, {"measurement": "pKd", "setting": "[3]", "result": 5.00}, {"measurement": "koff", "setting": "[3]", "result": 0.78, "unit": "s⁻¹"}, {"measurement": "kon", "setting": "[3]", "result": 77600, "unit": "M⁻¹ s⁻¹"}]}]}
